# Measured values reported in the nanobody polyreactivity screen of Harvey et al. (2022).
# Assay: yeast display, Sf9 membrane polyspecificity reagent, FACS + sequencing; frameworks hold sequencing errors
# Method in brief: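 Nanobodies came from a synthetic yeast display library in Saccharomyces cerevisiae BJ5465, induced with galactose for 36–48 hours and stained for 1 hour at 4 °C with 10% biotinylated, detergent-solubilized Sf9 membrane reagent. Cells were enriched on streptavidin microbeads and then FACS-sorted, with low and high (top ~1%) gates set on anti-HA fluorescence for expression and streptavidin fluorescence for reagent binding. Each polyreactivity label reflects the gate a clone came from. Genes were amplified by colony PCR, sequenced by MiSeq 2 × 250 and filtered by CDR length.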
row,Sequence,polyreactivity (PSR sort gate)
1,QVQLVESGGGLVQAGGSLRLSSAASGIIFRDNAMGWYRQAPGKERELVAAIDSSGGTTYADSVKGRFTISRDNAKNTVYLQMNSLKPEDTAVYYCATEVYWTVSYYGYDYYGGNYYYWGQGTQVTVSS,low polyreactivity
2,QVQLVESGGGLVQAGGSLRLSSAASGITFRRYAMVWYRQAPGKERELVASITRGGSTSYADSVKGRFTISRDNAKNTVYLQMNSLKPEDTAVYYCNTRFGYQFDYYYWGQGTQVTVSS,high polyreactivity
3,QVQLVESGGGLVQAGGSLRLSSAASGITFYINAMGWYRPAPGKERELVAALSWPRGSTYYADSVKGRFTISRDNAKNTVYLQMNSLKPEDTAVYYCAGVAYFELSGGGLEYGYDYWGQGTQVSVSS,high polyreactivity
4,QVQLVESGGGLVQAGGSLRLSSAASGITFYWYAMGWYRQAPGKERELVAASTRSVGSTYYADSVNGRFTISRDNAKNTVYLQMNSLKPEDTAVYYCAADFYYYGFDYWGQGTQVTVSS,low polyreactivity
5,QVQLVESGGGLVQAGGSLRLSSAASGITLKRYALGWYRHAPGKERELVAAITGRGGGTNYADSVKGRFTISRDNAKNTVYLQMNSLKPEDTAVYYCAARYLQGRYDYWGQGTQVTVSS,high polyreactivity
6,QVQLVESGGGLVQAGGSLRLSSAASGLTFNYYAMGWYRQAPGKERELVAAISKSGGRTYYADSVKGRFTISRDNAKNTVYLQMNSLKPEDTAVYYCNDVVPRSRYFSWTYDYWGQGTQVTVSS,high polyreactivity
7,QVQLVESGGGLVQAGGSLRLSSAASGLTYSVYAMGWYRQAPGKERELVAAISGSGGSTYYADSVKGRFTISRDNAKNTVYLQMNSLKPEDTAVYYCAARYDVHYDGMDYWGLGTQVTVSS,low polyreactivity
8,QVQLVESGGGLVQAGGSLRLSSAASGRIFDTNAMGGYRQAPGKERELVAAISKSGGSTYYADSVKGRFTISRDNAKNTVYLQMNSLKPEDTAVYFCAAKYTSGRVLFEHGYWGQGSQVTVSS,low polyreactivity
9,QVQLVESGGGLVQAGGSLRLSSAASGRIFLRNALGWYRQAPGKERESVAAITRGGSTNYADSVKGRFTISRDNAKNTVYLQMNSLKPEDTAVYYCNARYPVVRYDYWGQGTQVTVSS,high polyreactivity
10,QVQLVESGGGLVQAGGSLRLSSAASGRIFQGNSMGWYRQAPGKERELVAAITTSGGSTYYADSVKGRFTISRDNAKNTVYLQMNSLKPEDTAVYYCNVDPRKRSYDYWGQGPQVTVSS,high polyreactivity
11,QVQLVESGGGLVQAGGSLRLSSAASGRIFSSYAMGWYRQAPGKERELVAAITSGGSTYYADSVKGRFTISRDNAKNTVYLQMNSLKPEDTAVYYCAAVYVQPPATAQHYYYWGQGTQVTVSS,high polyreactivity
12,QVQLVESGGGLVQAGGSLRLSSAASGRIFVAYAMGWYRQAPAKERELVAAITWSGTSTYADSVKGRFTISRDNAKNTVYLQMNSLKPEDTAVYYCAKKAIVSDQWDKYDYWGQGTQVTVSS,low polyreactivity
13,QVQLVESGGGLVQAGGSLRLSSAASGRIIRAYAMGWYRQAPGKERELVADISGGSNTNYADSVKGRFTISRDNAKNTVYLQMNSLKPEDTAVYYCAADAGYWESLWYPYGFYWGQGTQVTVSS,low polyreactivity
14,QVQLVESGGGLVQAGGSLRLSSAASGRTFAVYAMGWYRQAPGKERELVAAISSGGSTYYADSVKGRFTISRDNAKNTVYLPMNSLKPEDTAVYYCTARWGYRRGDWGQGTQVTVSS,high polyreactivity
15,QVQLVESGGGLVQAGGSLRLSSAASGRTFFINAMGWYRQAPGKERDLVATITSGGITNYADSVKGRFTISRDNAKNTDYLQMNSLKPEDTAVYYCAVRWYGKYSGVRYYYWGQGTQVTVSS,high polyreactivity
16,QVQLVESGGGLVQAGGSLRLSSAASGRTFFPNAMGWYRQAPGKERELVAAISSGGGGTYYADSVKGRFTISRDKAKNTVYLQMNRLKPEDTAVYYCAGRNSKVEEEGNYWGQGTQVTVSS,low polyreactivity
17,QVQLVESGGGLVQAGGSLRLSSAASGRTFFYYAMGWYRQAPGKERELVAVISGSGARTYYADSVKGRFTISRDNAKYTVYLQMNSLKPEDTAVYYWIKVFARSRSSRYQAYDYWGQGTQVTVSS,high polyreactivity
18,QVQLVESGGGLVQAGGSLRLSSAASGRTFPSYAMGWYRQAPGKERELVAAISSSGGSTYYADSVKGRFTISRDNAKNTFYLQMNSLKPEDTAVYYCNKQFPYAKYYIMGYWGQGTQVTVSS,high polyreactivity
19,QVQLVESGGGLVQAGGSLRLSSAASGRTFTVNAMGSYRQAPGKERELVAAISQRGASTYYADSVKGRFTISRDNAKNTVYLQMNSLKPVDTAVYYCAAHLRYKYDYWGQGTQVTVSS,high polyreactivity
20,QVQLVESGGGLVQAGGSLRLSSAASGRTFTYYAMGWYRQAPGTERELVAAISSGGRTDYADSVKGRFTISRDNAKNTVYLQMNSLKPEDTAVYYCNARPKVYYREYDYWGQGNQVTVSS,high polyreactivity
21,QVQLVESGGGLVQAGGSLRLSSAASGRTFYSNAMGWYRQAPGKEREFVAAINWSGTSTYADSVKGRFTISRDNAKNTVYLQMNSLKPEDTAVYYCAKTYRTLVRYWGQPFGYWGQGTQVTVSS,high polyreactivity
22,QVQLVESGGGLVQAGGSLRLSSAASGRTLARNAMGWYRQAPGKERELVAGITSGGSTDYADSVKGRFTISRDNAKNTVYLQMNSLKPEDTAVYYCNRDAGPGGDYWGQGTQGTVSS,low polyreactivity

row,Sequence,polyreactivity (PSR sort gate)
1,QVQLVESGGGLVQAGGSLRLSSAASGSIFAWYGMGWYRQAPGKERELVAAISTAGSTNYADSVKGRFTISRDNAKNTVYLQMNSLKPEDTAVYYCAKKSSWYYPERFDYWGQGTQVTVSS,low polyreactivity
2,QVQLVESGGGLVQAGGSLRLSSAASGSIFDYYAMGWSRQAPGKERELVAAISGSGGSTYYADSVKGRFTISRDNAKNTVYLQMNSLKPEDTAVYYCNVYYRRRYDYWGQGTQVTVSS,high polyreactivity
3,QVQLVESGGGLVQAGGSLRLSSAASGSIFERYTMAWYRLAPGKERELVAVISTGGGSTNYADSVKGRFTFSRDNAKNTVYLQMNSLKPADTAVYYCAASYGYYRYGYWGQGTQVNVSS,high polyreactivity
4,QVQLVESGGGLVQAGGSLRLSSAASGSIFGSNAMGWYRQAPGKERELVATITTSGGITYYADSVKGRFTISRDTAKNTVYLQMNSLKPEDTAVYYCAAAEGGGLVTYDYWGQGTQVTVSS,low polyreactivity
5,QVQLVESGGGLVQAGGSLRLSSAASGSIFLGNAMGWYRQAPGKERELVAAISSITGRTYYADSVKGRFTISRDNAKNTVYLQMNSLKPEDTAVYYCAATSLIYGYRTYDYWGQGTQVTVSS,high polyreactivity
6,QVQLVESGGGLVQAGGSLRLSSAASGSIFLVNAMGWYRQAPGKERELVAAINSGGSTYYADSVKGRFTISRDNAKNTVYLQMNSLKPEDTAVYYCAADFWLKVWQDTDYDFDYWGQGTQVTVSS,low polyreactivity
7,QVQLVESGGGLVQAGGSLRLSSAASGSIFRIYAMGWYRQAPGKERELVAAMSSGGSTYYADSVKGRFTISRDNAKNTVYLQMNSLKPEDTAVYYCAAYPEYVSGAWYDYWGQGTQVTLSS,low polyreactivity
8,QVQLVESGGGLVQAGGSLRLSSAASGSIFRWNAMGWYRQAPGKERELVAVITWRGGRTYYADSVKGRFTISRDNAKNTVYLQMNSLKPEDTAVYYCGKGRLVTTLFGHYATFEYDSWGQGTQVTVSS,high polyreactivity
9,QVQLVESGGGLVQAGGSLRLSSAASGSIFSSYAMGWYRQAPGKERELVAAISTGGSTYYADSVKGRFTISRDNAKNTVYLQMNSLKPEDTAVYYCAAGIMDLKLYFSSYDYWGQGTQVTVSS,low polyreactivity
10,QVQLVESGGGLVQAGGSLRLSSAASGSIFYGNAMGWYRQAPGKESELVAAISARGGSTNYADSVKGRFTISRDNAKITVYLQMNSLIPEDTAVYYCAAKVRVWYYRMDSWGQGTQVTVSS,low polyreactivity
11,QVQLVESGGGLVQAGGSLRLSSAASGSIFYVYAMGWYRQAPGKERELVAAISRRGARTYYADSVKGRFTISRDNEKNTVYLQMNILKPEDTAVYYCYADQYHTVGYSAEYEYWGQGTQVTVSS,low polyreactivity
12,QVQLVESGGGLVQAGGSLRLSSAASGSILTPNAMGWYRQAPGKERELVAAINYSGGSTYYADSVKGRFTISRDTAKNTVYLQMNSLKPEDTAVYYCAVPYWYGRGHCYWGQGTQVTVSS,low polyreactivity
13,QVQLVESGGGLVQAGGSLRLSSAASGSIYGYTMGWYRQAPGKERELVAAINRRADRTYYADSVKGRFTISRDNAKNTVYLEMNILKPEDTAVYYCNKGGWYTLGYWGQGTQVTVSS,high polyreactivity
14,QVQLVESGGGLVQAGGSLRLSSAASGSTFDDYVMGWYRQAPGKERELVAGINSRGTSTDYADSVKGRFTISRDNAKNTVYLQMNSLKPEDTAVYYCNAESPSGRLFDDAYENDYWGQGTQVTVSS,low polyreactivity
15,QVQLVESGGGLVQAGGSLRLSSAASGSTFEYNAMGWYRQAPGKERELVASSTNYADSVKGRFTISRDNAKNTVYLQMNSLKPEDTAVYYCAREQGVNRNHDYWGQGTQVTVSS,low polyreactivity
16,QVQLVESGGGLVQAGGSLRLSSAASGSTFLLNAMGWYRQAPGKERELVAAITWSGSRTYYADSVKGRFTISRDNPKYNVYLQMNSLKPEDTAVYDCAAEYRDTRRYSYDYWGQGTQVTVSW,high polyreactivity
17,QVQLVESGGGLVQAGGSLRLSSAASGSTFQFYAMGWYRQAPGKERELVADITSGDDTNYADSVKGRFTISRDNAKNTVYLQMNSLKPEDTAVYYCAVEYILFYTRVRSYWFDYWGQGTQVTVSS,low polyreactivity
18,QVQLVESGGGLVQAGGSLRLSSAASGSTFSLNAMGWYRQAPGKERELVASISSGDSTNYADSVKGRFTISLDNAKNTVYLQMNSLKPEDTAVYYCAADGWVLSLARGYYTYDYWGLGTQVTVSS,low polyreactivity
19,QVQLVESGGGLVQAGGSLRLSSAASGSTFVNYVMGWYRQAPGKERELVAAISRRGTSTSYADSVKGRFTISRDNAKNTVYLQMNSLKPVDTAVYYCITLRQLGRPFYYWGQGTQVTVSS,high polyreactivity
20,QVQLVESGGGLVQAGGSLRLSSAASGSTFYLNTMGWYRQAPGKEREFVAAISARGGSTYYADSVKGRFTISRDNAKNTVYLQMNSLKPEDTAVYYCAAKFVRFYWNYDYWGQGTQVTVSS,high polyreactivity
21,QVQLVESGGGLVQAGGSLRLSSAASGSTFYSYAMRWYRQAPGKERELVAAINWDGVSTYYADSVKGRFSISRDNAMNTVYLQMNSLKPEDTAVYYCAADLFSGYRISGTFYYWGQGTQVTVSS,low polyreactivity
